Data on four substances can be found in PMC6937562.

In test [1] the target is PspCN-anchored FH (on the HJEM6 SPR chip) (human | Streptococcus pneumoniae) (UniProt P08603). Briefly: SPR; homemade HJEM6 chip, FH (54 RU) captured by clicked sumo-Cys-PspCN-azide (18 RU); C3b flowed (1 μM to 3.9 nM); 1:1 steady-state model.
The target of test [2] is C3b (human) (UniProt P01024). Briefly: SPR; homemade HJEM7 chip, 143 RU C3b amine-coupled and 174 RU 3′-sialyllactose clicked on; FH (2 μM to 3.9 nM) or FH 19–20 (10 μM to 3.9 nM) flowed; Biacore T200, 25 °C, HBS-P pH 7.4; 1:1 steady-state model.
Test [3] addresses C3b (human) (UniProt P01024). Briefly: SPR; homemade HJEM7 chip (50% OH, 25% COOH, 25% propargyl), 144 RU C3b amine-coupled; FH (2 μM to 3.9 nM) or FH 19–20 (10 μM to 3.9 nM) flowed; Biacore T200, 25 °C, HBS-P pH 7.4; 1:1 steady-state model.
Test [4] has as its target C3b (human) (UniProt P01024). As to the kind of experiment: AFM force-distance measurements; Cys-PspCN thiol-coupled to the SAM on the AFM probe tip, alone or with FH anchored to it; partner amine-coupled to the SAM on a gold wafer; PBS, laboratory at 22 °C; single (type 3) detachment events.
Test [5] deals with C3b (human) (UniProt P01024). Briefly: SPR; C1 chip with immobilised C3b; cycles of a mixture of FB and FD, then C3, injected at 10 μl/min; Biacore T200, 25 °C, HBS-P pH 7.4 with 1 mM MgCl2.

For “C3b (from UniProt P01024 23-667; P01024 749-1663) (natural protein)”, in test [1], the equilibrium dissociation constant (Kd) came to 70 nM. This lies in the double-digit nanomolar range. For the substance FH 19–20 (domain or fragment), the results for the Kd in the test with C3b (human) [2] and with C3b (human) [3] were 2600 nM and 350 nM, respectively.

For the substance “PspCN-anchored FH (on the AFM probe tip) (from UniProt P08603 19-1231) (complex)”, in the test with C3b (human) [4], the detachment force of single events lay within 0.1 to 0.26 nN and the mean detachment force was 0.17 nN. On to factor B (natural protein), for which, in the test with C3b (human) [5], the percent of C3b molecules binding FB was under 80%.
